Assay results: the supplement of paper PMC10567573

B1: HDAC6 (parent)
chain: YVHHQALLDVKNIAHQNKFGEDMP

Variants of: B1
Experiment: protein stability index of a GFP-peptide fusion (GPS, HEK-293T) (PSI 1-6); higher = more stable
Settings: c terminus: a fixed tail appended
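Also: lentivirally expressed fusions sorted by FACS into six bins by GFP to DsRed ratio, PSI derived from sequencing read proportions per bin multiplied by bin number.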

Variant	protein stability index
YVHHQALLDVKNIAHLNKFGEDMP [Q16L]	2.21
YVHHQALLDVKNIAHMNKFGEDMP [Q16M]	2.28
YVHHQALLDVKNIAHNNKFGEDMP [Q16N]	2.15
YVHHQALLDVKNIAHKNKFGEDMP [Q16K]	1.49
YVHHQALLDVKNIAHSNKFGEDMP [Q16S]	1.87
YVHHQALLDVKNIAHYNKFGEDMP [Q16Y]	2.31
YVHHQALLDVKNIAHPNKFGEDMP [Q16P]	2.3
YVHHQALLDVKNIAHINKFGEDMP [Q16I]	2.16
YVHHQALLDVKNIAHGNKFGEDMP [Q16G]	1.58
YVHHQALLDVKNIAHWNKFGEDMP [Q16W]	2
YVHHQALLDVKNIAHCNKFGEDMP [Q16C]	2.01
YVHHQALLDVKNIAHVNKFGEDMP [Q16V]	1.48
YVHHQALLDVKNIAHHNKFGEDMP [Q16H]	1.77
YVHHQALLDVKNIAHANKFGEDMP [Q16A]	1.63
YVHHQALLDVKNIAHTNKFGEDMP [Q16T]	1.91
YVHHQALLDVKNIAHENKFGEDMP [Q16E]	2.12
YVHHQALLDVKNIAHRNKFGEDMP [Q16R]	1.8
YVHHQALLDVKNIAHFNKFGEDMP [Q16F]	1.59
YVHHQALLDVKNIAHDNKFGEDMP [Q16D]	2
YVHHQALLNVKNIAHQNKFGEDMP [D9N]	2.66
YVHHQALLSVKNIAHQNKFGEDMP [D9S]	2.25
YVHHQALLVVKNIAHQNKFGEDMP [D9V]	1.25
YVHHQALLYVKNIAHQNKFGEDMP [D9Y]	2.35
YVHHQALLTVKNIAHQNKFGEDMP [D9T]	1.95

Variant	protein stability index
YVHHQALLWVKNIAHQNKFGEDMP [D9W]	3.58
YVHHQALLQVKNIAHQNKFGEDMP [D9Q]	1.68
YVHHQALLPVKNIAHQNKFGEDMP [D9P]	4.3
YVHHQALLRVKNIAHQNKFGEDMP [D9R]	1.65
YVHHQALLDVKNIAHQNWFGEDMP [K18W]	1.9
YVHHQALLDVKNIAHQNIFGEDMP [K18I]	2.15
YVHHQALLDVKNIAHQNLFGEDMP [K18L]	1.73
YVHHQALLDVKNIAHQNVFGEDMP [K18V]	1.74
YVHHQALLDVKNIAHQNCFGEDMP [K18C]	1.37
YVHHQALLDVKNIAHQNRFGEDMP [K18R]	2.88
YVHHQALLDVKNIAHQNHFGEDMP [K18H]	1.78
YVHHQALLDVKNIAHQNTFGEDMP [K18T]	2.43
YVHHQALLDVKNIAHQNAFGEDMP [K18A]	2.23
YVHHQALLDVKNIAHQNMFGEDMP [K18M]	1.94
YVHHQALLDVKNIAHQNQFGEDMP [K18Q]	1.95
YVHHQALLDVKNIAHQNFFGEDMP [K18F]	1.9
YVHHQALLDVKNIAHQNSFGEDMP [K18S]	1.49
YVHHQALLDVKNIAHQNPFGEDMP [K18P]	2.35
YVHHQALLDVKNIAHQNYFGEDMP [K18Y]	2.2
YVHHQALLDVKNIAHQNDFGEDMP [K18D]	1.7
YVHHQALLDVKNIAHQNGFGEDMP [K18G]	2.58
YVHHQALLDVKNIAHQNEFGEDMP [K18E]	2.37
YVHHQALLDVKNIAHQNNFGEDMP [K18N]	2.26
YVHHQALLDVKYIAHQNKFGEDMP [N12Y]	3.4

Variant	protein stability index
YVHHQALLDVKSIAHQNKFGEDMP [N12S]	2.09
YVHHQALLDVKRIAHQNKFGEDMP [N12R]	2.36
YVHHQALLDVKVIAHQNKFGEDMP [N12V]	1.54
YVHHQALLDVKFIAHQNKFGEDMP [N12F]	2.65
YVHHQALLDVKGIAHQNKFGEDMP [N12G]	2.71
YVHHQALLDVKHIAHQNKFGEDMP [N12H]	1.72
YVHHQALLDVKCIAHQNKFGEDMP [N12C]	1.42
YVHHQALLDVKEIAHQNKFGEDMP [N12E]	1.66
YVHHQALLDVKWIAHQNKFGEDMP [N12W]	2.64
YVHHQALLDVKKIAHQNKFGEDMP [N12K]	2.18
YVHHQALLDVKMIAHQNKFGEDMP [N12M]	1.87
YVHHQALLDVKIIAHQNKFGEDMP [N12I]	2.4
YVHHQALLDVKTIAHQNKFGEDMP [N12T]	2.09
YVHHQALLDVKPIAHQNKFGEDMP [N12P]	2.12
YVHHQALLDVKAIAHQNKFGEDMP [N12A]	2
YVHHQALLDVKDIAHQNKFGEDMP [N12D]	1.67
YVHHQALLDVKLIAHQNKFGEDMP [N12L]	1.93
YVHHQALLDVKQIAHQNKFGEDMP [N12Q]	1.57
YVHHQALLDKKNIAHQNKFGEDMP [V10K]	2.21
YVHHQALLDTKNIAHQNKFGEDMP [V10T]	1.86
YVHHQALLDLKNIAHQNKFGEDMP [V10L]	1.9
YVHHQALLDAKNIAHQNKFGEDMP [V10A]	2.33
YVHHQALLDFKNIAHQNKFGEDMP [V10F]	1.98
YVHHQALLDMKNIAHQNKFGEDMP [V10M]	1.73

Variant	protein stability index
YVHHQALLDDKNIAHQNKFGEDMP [V10D]	2.74
YVHHQALLDNKNIAHQNKFGEDMP [V10N]	2.05
YVHHQALLDWKNIAHQNKFGEDMP [V10W]	2.37
YVHHQALLDRKNIAHQNKFGEDMP [V10R]	1.85
YVHHQALLDGKNIAHQNKFGEDMP [V10G]	2.02
YVHHQALLDIKNIAHQNKFGEDMP [V10I]	1.22
YVHHQALLDHKNIAHQNKFGEDMP [V10H]	2.14
YVHHQALLDYKNIAHQNKFGEDMP [V10Y]	1.62
YVHHQALLDCKNIAHQNKFGEDMP [V10C]	2
YVHHQALLDEKNIAHQNKFGEDMP [V10E]	2.5
YVHHQALLDQKNIAHQNKFGEDMP [V10Q]	2.43
YVHHQALLDPKNIAHQNKFGEDMP [V10P]	2.15
YVHHQALLDSKNIAHQNKFGEDMP [V10S]	1.84
YVHHQALLDVKNIAQQNKFGEDMP [H15Q]	2.08
YVHHQALLDVKNIAPQNKFGEDMP [H15P]	2.37
YVHHQALLDVKNIAVQNKFGEDMP [H15V]	2.08
YVHHQALLDVKNIAYQNKFGEDMP [H15Y]	1.43
YVHHQALLDVKNIAIQNKFGEDMP [H15I]	1.77
YVHHQALLDVKNIALQNKFGEDMP [H15L]	1.91
YVHHQALLDVKNIAFQNKFGEDMP [H15F]	1.51
YVHHQALLDVKNIAMQNKFGEDMP [H15M]	2.12
YVHHQALLDVKNIAAQNKFGEDMP [H15A]	2.57
